Assay results reported in patent US8642284.
Changes are numbered by the printed parent chain. Numbers in names are those of the source.

B1: endogenous mSir2α protein of mouse NIH3T3 cells (protein)
chain: ADEVALALQAAGSPSAAAAMEAASQPADEPLRKRPRRDGPGLGRSPGEPSAAVAPAAAGCEAASAAAPAALWREAAGAAASAEREAPATAVAGDGDNGSGLRREPRAADDFDDDEGEEEDEAAAAAAAAAIGYRDNLLLTDGLLTNGFHSCESDDDDRTSHASSSDWTPRPRIGPYTFVQQHLMIGTDPRTILKDLLPETIPPPELDDMTLWQIVINILSEPPKRKKRKDINTIEDAVKLLQECKKIIVLTGAGVSVSCGIPDFRSRDGIYARLAVDFPDLPDPQAMFDIEYFRKDPRPFFKFAKEIYPGQFQPSLCHKFIALSDKEGKLLRNYTQNIDTLEQVAGIQRILQCHGSFATASCLICKYKVDCEAVRGDIFNQVVPRCPRCPADEPLAIMKPEIVFFGENLPEQFHRAMKYDKDEVDLLIVIGSSLKVRPVALIPSSIPHEVPQILINREPLPHLHFDVELLGDCDVIINELCHRLGGEYAKLCCNPVKLSEITEKPPRPQKELVHLSELPPTPLHISEDSSSPERTVPQDSSVIATLVDQATNNNVNDLEVSESSCVEEKPQEVQTSRNVENINVENPDFKAVGSSTADKNERTSVAETVRKCWPNRLAKEQISKRLEGNQYLFVPPNRYIFHGAEVYSDSEDDVLSSSSCGSNSDSGTCQSPSLEEPLEDESEIEEFYNGLEDDTERPECAGGSGFGADGGDQEVVNEAIATRQELTDVNYPSDKS
B2: recombinant 6xHis-tagged full-length mSir2α (protein)
chain: MADEVALALQAAGSPSAAAAMEAASQPADEPLRKRPRRDGPGLGRSPGEPSAAVAPAAAGCEAASAAAPAALWREAAGAAASAEREAPATAVAGDGDNGSGLRREPRAADDFDDDEGEEEDEAAAAAAAAAIGYRDNLLLTDGLLTNGFHSCESDDDDRTSHASSSDWTPRPRIGPYTFVQQHLMIGTDPRTILKDLLPETIPPPELDDMTLWQIVINILSEPPKRKKRKDINTIEDAVKLLQECKKIIVLTGAGVSVSCGIPDFRSRDGIYARLAVDFPDLPDPQAMFDIEYFRKDPRPFFKFAKEIYPGQFQPSLCHKFIALSDKEGKLLRNYTQNIDTLEQVAGIQRILQCHGSFATASCLICKYKVDCEAVRGDIFNQVVPRCPRCPADEPLAIMKPEIVFFGENLPEQFHRAMKYDKDEVDLLIVIGSSLKVRPVALIPSSIPHEVPQILINREPLPHLHFDVELLGDCDVIINELCHRLGGEYAKLCCNPVKLSEITEKPPRPQKELVHLSELPPTPLHISEDSSSPERTVPQDSSVIATLVDQATNNNVNDLEVSESSCVEEKPQEVQTSRNVENINVENPDFKAVGSSTADKNERTSVAETVRKCWPNRLAKEQISKRLEGNQYLFVPPNRYIFHGAEVYSDSEDDVLSSSSCGSNSDSGTCQSPSLEEPLEDESEIEEFYNGLEDDTERPECAGGSGFGADGGDQEVVNEAIATRQELTDVNYPSDKS
B3: recombinant mSir2α mutant G253A (protein)
chain: B2 chain with G253A
B4: recombinant mSir2α mutant R266A (protein)
chain: B2 chain with R266A
B5: recombinant mSir2α mutant G270A (protein)
chain: B2 chain with G270A
B6: recombinant mSir2α mutant G255A (protein)
chain: B2 chain with G255A
B7: recombinant mSir2α mutant F265A (protein)
chain: B2 chain with F265A
B8: recombinant mSir2α mutant H355A (protein)
chain: B2 chain with H355A
B9: recombinant mSir2α mutant S257A (protein)
chain: B2 chain with S257A
B10: recombinant mSir2α mutant T336A (protein)
chain: B2 chain with T336A
B11: recombinant mSir2α mutant I262A (protein)
chain: B2 chain with I262A
B12: recombinant mSir2α mutant P285A (protein)
chain: B2 chain with P285A

Columns and labels:
[1] = target: histone H2B (calf thymus), P62808
[2] = target: histone H4 N-terminal tail peptide (residues 1-20) acetylated at Lys16
[3] = target: histone H3 N-terminal tail peptide (residues 1-20) di-acetylated at lysines 9 and 14
[4] = target: histone H3 (calf thymus), intact protein, P68432
[5] = target: unacetylated histone H3 N-terminal tail peptide (residues 1-20)
[6] = target: histone H4 (calf thymus), P62803
[7] = target: histone H2A (calf thymus), P0C0S9

Protein	mono-ADP-ribosylation activity relative to wild type (Phosphorimaging) [1]	other results
B1	–	ADP-ribosyl-transferase activity of the immune complex on Protein A-Sepharose beads [1]: ADP-ribosyl-transferase activity could be detected for the endogenous mSir2α immunoprecipitated from NIH3T3 whole cell extracts
B2	–	ADP-ribosyltransferase and NAD hydrolase activities (thin layer chromatography) [2]: Both ADP-ribosylation and NAD hydrolysis were stimulated by the Lys16Ac peptide; ADP-ribosylation (transfer of 32P from NAD, SDS-PAGE) [1]: transferred radioactive ADP-ribose to H2B and H3; ADP-ribosylation of peptide (32P-NAD, thin layer chromatography) [3]: Both the yeast and mouse Sir2 modified only the diacetylated H3 tail peptide; NAD-dependent deacetylation (HPLC) [3]: gave rise to the same array of products with a similar yield as the yeast enzyme; ADP-ribosylation (transfer of 32P from NAD, SDS-PAGE) [4]: transferred radioactive ADP-ribose to H2B and H3; ADP-ribosylation of peptide (32P-NAD, thin layer chromatography) [5]: modified only the diacetylated H3 tail peptide (unacetylated peptide not modified); ADP-ribosylation (transfer of 32P from NAD, SDS-PAGE) [6]: but not to H1, H2A and H4; ADP-ribosylation (transfer of 32P from NAD, SDS-PAGE) (histone H1 (calf thymus)): but not to H1, H2A and H4; ADP-ribosylation (transfer of 32P from NAD, SDS-PAGE) [7]: but not to H1, H2A and H4
B3	completely abolished the activity	–
B4	18% for R266A	–
B5	completely abolished the activity	–
B6	completely abolished the activity	–
B7	completely abolished the activity	–
B8	completely abolished the activity	–
B9	completely abolished the activity	–
B10	completely abolished the activity	–
B11	completely abolished the activity	–
B12	5% for P285A	–
